The results in this text go back to paper PMC5585171.

This experiment has as its target Medicago truncatula L-histidinol dehydrogenase (Medicago truncatula). As to the kind of experiment: SEC; HiLoad Superdex 200 16/60; 25 mM Hepes-NaOH pH 7.5, 100 mM KCl, 50 mM NaCl, 1 mM TCEP; data not shown.

The substance “Medicago truncatula L-histidinol dehydrogenase (enzyme)” showed a stoichiometry N of 2.
